B1: 1D12 B cell receptor on the donor's B cell (antibody, V domains shown)
VH: QLVQSGAEVKKPGASVKVSCKASGYTFTGYYLHWVRQAPGQGLEWMGRINPDTGGTNYAQKFQGRVSMTRDMSISTHYMELSRLTSDDTAVYYCATKRGAVTAMVYYYFYGMDVWGQGTTVTVSS
VL: DIVMTQSPLSLSVTPGEPASISCRSSHSLLHLNGYNYLDWYLQKPGQSPQLLIYLGSNRASGVPDRFSGSGSGTDFTLKISRVEAEDVGIYYCMQALRTPPGLTFGGGTKVDIK
B2: 315–19-1D12 Fab (Fab, V domains shown)
VH: QLVQSGAEVKKPGASVKVSCKASGYTFTGYYLHWVRQAPGQGLEWMGRINPDTGGTNYAQKFQGRVSMTRDMSISTHYMELSRLTSDDTAVYYCATKRGAVTAMVYYYFYGMDVWGQGTTVTVSS
VL: DIVMTQSPLSLSVTPGEPASISCRSSHSLLHLNGYNYLDWYLQKPGQSPQLLIYLGSNRASGVPDRFSGSGSGTDFTLKISRVEAEDVGIYYCMQALRTPPGLTFGGGTKVDIK

Legend:
H7 (SH13) HA probe = H7 (SH13) HA probe (Influenza A virus A/Shanghai/02/2013 …, UniProt R4NN21, strain, biotin (biotin protein ligase, AviTag)); assay: flow cytometry on cells
[1] = biological target: H9N2 A/Hong Kong/1073/99 hemagglutinin trimer, wild type (Influenza A virus A/Hong Kong/1073/99 …, UniProt Q9ICY5, strain); assay: BLI

| Binder | binding result (H7 (SH13) HA probe) | binding result [1] |
| --- | --- | --- |
| B1 | binds |  |
| B2 |  | binds |
